Data on 2 proteins can be found in PMC8211829 (Biochimica et biophysica acta. Biomembranes, 2021).

This series concerns the molecule itself. The experiment in a line: cross-linking.

B1: apoE(201–299) single Cys variant S223C (domain or fragment)
chain: QPLQERAQAWGERLRARMEEMGCRTRDRLDEVKEQVAEVRAKLEEQAQQIRLQAEAFQARLKSWFEPLVEDMQRQWAGLVEKVQAAVGTSAAPVPSDNH
Turning to B1, the binding result is reported as “binds”.

B2: apoE(201–299) single Cys variant at E255 (domain or fragment)
chain: QPLQERAQAWGERLRARMEEMGSRTRDRLDEVKEQVAEVRAKLEEQAQQIRLQACAFQARLKSWFEPLVEDMQRQWAGLVEKVQAAVGTSAAPVPSDNH
Regarding B2, the binding result is listed as “binds”.
